Here are results for 1 protein from publication PMC10372164 (Molecular Therapy. Nucleic Acids, 2023).

One may read the stoichiometry N as the number of molecules, sites or subunits per partner or assembly.

The data set deals with the molecule itself. The data set can be described thus: SEC. On the technique in general: Size exclusion chromatography separates by hydrodynamic size, large species first.

B1: human ornithine transcarbamylase labeled with 3x FLAG at the C-terminus (enzyme, UniProt P00480 33-354, looked up)
chain: NKVQLKGRDLLTLKNFTGEEIKYMLWLSADLKFRIKQKGEYLPLLQGKSLGMIFEKRSTRTRLSTETGFALLGGHPCFLTTQDIHLGVNESLTDTARVLSSMADAVLARVYKQSDLDTLAKEASIPIINGLSDLYHPIQILADYLTLQEHYSSLKGLTLSWIGDGNNILHSIMMSAAKFGMHLQAATPKGYEPDASVTKLAEQYAKENGTKLLLTNDPLEAAHGGNVLITDTWISMGQEEEKKKRLQAFQGYQVTMKTAKVAASDWTFLHCLPRKPEEVDDEVFYSPRSLVFPEAENRKWTIMAVMVSLLTDYSPQLQKPKF
Turning to B1, the “stoichiometry N” value was determined as 3.
